# Patent publication US20040018971A1 (published 2004)
# Where no end group is shown, it is not given here. [ ]: non-standard residue; d: D form. Abu = CC[C@H](N)C(=O)O
# B1: Her2/neu.5.T2B3V9 ATBRWGLLV (peptide)
# peptide: AT[Abu]RWGLLV
# B2: Her2/neu.5V2B3V9 AVBRWGLLV (peptide)
# peptide: AV[Abu]RWGLLV
# B3: Her2/neu.5M2B3V9 AMBRWGLLV (peptide)
# peptide: AMBRWGLLV
# modifications: B at position 3 = alpha-amino butyric acid
# B4: Her2/neu.70 (peptide)
# peptide: SLSFLQDIQEVQGYV
# B5: Her2/neu.1005 (peptide)
# peptide: YRSLLEDDDMGDLVD
# B6: HER2/neu DR supermotif exemplary 15-mer VVGILLVVVLGVVFG (position 658) (peptide)
# peptide: VVGILLVVVLGVVFG
# notes: also called Her2/neu.658
# B7: HER2/neu DR supermotif exemplary 15-mer VCPLHNQEVTAEDGT (position 314) (peptide)
# peptide: VCPLHNQEVTAEDGT
# notes: also called Her2/neu.314
# B8: HER2/neu DR supermotif exemplary 15-mer VEPLTPSGAMPNQAQ (position 697) (peptide)
# peptide: VEPLTPSGAMPNQAQ
# notes: also called Her2/neu.697
# B9: HER2/neu DR supermotif exemplary 15-mer TQLFEDNYALAVLDN (position 105) (peptide)
# peptide: TQLFEDNYALAVLDN
# notes: also called Her2/neu.105
# B10: HER2/neu DR supermotif exemplary 15-mer VHTVPWDQLFRNPHQ (position 477) (peptide)
# peptide: VHTVPWDQLFRNPHQ
# notes: also called Her2/neu.477
# B11: HER2/neu DR supermotif exemplary 15-mer TAPLQPEQLQVFETL (position 389) (peptide)
# peptide: TAPLQPEQLQVFETL
# notes: also called Her2/neu.389
# B12: HER2/neu DR supermotif exemplary 15-mer RSLLEDDDMGDLVDA (position 1006) (peptide)
# peptide: RSLLEDDDMGDLVDA
# notes: also called Her2/neu.1006
# B13: Her2/neu.889.V2 (peptide)
# peptide: MVLESILRR
# B14: HER2/neu peptide, position 1173, 10 amino acids (peptide)
# peptide: LSPGKNGVVK
# notes: Synthetic peptide; also called Her2/neu.1173 (10-mer)
# B15: HER2/neu peptide, position 1162, 10 amino acids (peptide)
# peptide: PAGATLERPK
# notes: Synthetic peptide; also called Her2/neu.1162 (10-mer)
# B16: HER2/neu peptide DLTLGLEPSEEEAPR (position 1058) (peptide)
# peptide: DLTLGLEPSEEEAPR
# notes: also called Her2/neu.1058
# B17: HER2/neu peptide AIKVLRENTSPKANK (position 751) (peptide)
# peptide: AIKVLRENTSPKANK
# notes: also called Her2/neu.751
# B18: HER2/neu peptide FVVIQNEDLGPASPL (position 986) (peptide)
# peptide: FVVIQNEDLGPASPL
# notes: also called Her2/neu.986
# B19: Her2/neu.369T2V9 (peptide)
# peptide: KTFGSLAFV
# B20: Her2/neu.653.L2V9 (peptide)
# peptide: SLISAVVGV
# B21: Her2/neu.952L2V10 (peptide)
# peptide: YLIMVKCWMV
# B22: Her2/neu.952L2B7V10 (peptide)
# peptide: YLIMVK[Abu]WMV
# notes: also called YLIMVKBWMV
# B23: Her2/neu.153V9 (peptide)
# peptide: VLIQRNPQV
# B24: HER2/neu peptide, position 607, 9 amino acids (peptide)
# peptide: DLSYMPIWK
# notes: also called Her2/neu.607 (9-mer)
# B25: HER2/neu peptide, position 327, 10 amino acids (peptide)
# peptide: GTQRCEKCSK
# notes: also called Her2/neu.327 (10-mer)
# B26: HER2/neu peptide, position 528, 9 amino acids (peptide)
# peptide: CVNCSQFLR
# notes: also called Her2/neu.528
# B27: HER2/neu peptide, position 596, 10 amino acids (peptide)
# peptide: CVARCPSGVK
# notes: also called Her2/neu.596 (10-mer)
# B28: Her2/neu.1028 (peptide)
# peptide: QGFFCPDPAPGAGGM
# B29: Her2/neu.769 (peptide)
# peptide: DEAYVMAGVGSPYVS
# B30: Her2/neu.765 (peptide)
# peptide: KEILDEAYVMAGVGS
# B31: Her2/neu.369.T2V9 (peptide)
# peptide: KTFGSLAFV
# notes: analog of Her2/neu.369
# B32: Her2/neu.952.L2V10 (peptide)
# peptide: YLIMVKCWMV
# notes: analog of Her2/neu.952 (10-mer)
# B33: Her2/neu.653.L2V9 (peptide)
# peptide: SLISAVVGV
# notes: analog of Her2/neu.653
# B34: Her2/neu.153.V9 (peptide)
# peptide: VLIQRNPQV
# notes: analog of Her2/neu.153
# B35: HER2/neu DR supermotif exemplary peptide QGFFCPDPAPGAGGM (position 1028) (peptide)
# peptide: QGFFCPDPAPGAGGM
# notes: synthetic 15-mer; also called Her2/neu.1028
# Biological target: HLA-A*6802 (human)
# Assay: competition with 125I probe peptide for purified HLA
row,IC50 [µM],Binder
1,1.74,B1
2,4.71,B2

# Biological target: T1, HLA-A*0201 (human)
# T1 construct: also called HLA-A2.1
# Assay: as above
row,IC50 [µM],Binder
1,16.7,B1
2,0.036,B3
3,10,B2

# Biological target: HLA-A*0206 (human)
# Assay: as above
row,IC50 [nM],Binder
1,2180,B1
2,726,B3
3,2180,B2

# Biological target: HLA-A*0202 (human)
# Assay: as above
row,IC50 [nM],Binder
1,215,B1
2,473,B3
3,215,B2

# Biological target: HLA-A*0203 (human)
# Assay: as above
row,IC50 [nM],Binder
1,16,B3
2,141,B2

# Biological target: T2, HLA-DRB1*0301 (human)
# T2 construct: purified MHC class II molecule; also called DR3
# Assay: competition with 125I-labelled standard peptide, purified HLA-DR, gel filtration
row,IC50 [µM],Binder
1,5.77,B4
2,4.76,B5

# Biological target: HLA-DR1 (DRB1*0101), purified HLA class II molecule (human)
# Assay: competition with 125I-labelled probe peptide, purified HLA-DR
row,relative binding ratio,Binder
1,-0.0004 ratio (IC50 standard / IC50 test),B6
2,-0.0004 ratio (IC50 standard / IC50 test),B7
3,-0.0008 ratio (IC50 standard / IC50 test),B8
4,0.053 ratio (IC50 standard / IC50 test),B9

# Biological target: HLA-DR7 (DRB1*0701), purified HLA class II molecule (human)
# Assay: as above
row,relative binding ratio,Binder
1,-0.0013 ratio (IC50 standard / IC50 test),B6
2,-0.0013 ratio (IC50 standard / IC50 test),B7
3,-0.0011 ratio (IC50 standard / IC50 test),B8
4,0.016 ratio (IC50 standard / IC50 test),B9

# Biological target: HLA-DR3 (DRB1*0301), purified HLA class II molecule (human)
# Assay: as above
row,relative binding ratio,Binder
1,0.022 ratio (IC50 standard / IC50 test),B10
2,0.0023 ratio (IC50 standard / IC50 test),B11
3,0.008 ratio (IC50 standard / IC50 test),B12

# Biological target: HLA-DR4w4 (DRB1*0401), purified HLA class II molecule (human)
# Assay: as above
row,relative binding ratio,Binder
1,-0.0025 ratio (IC50 standard / IC50 test),B6
2,-0.0025 ratio (IC50 standard / IC50 test),B7
3,-0.0025 ratio (IC50 standard / IC50 test),B8
4,-0.0025 ratio (IC50 standard / IC50 test),B9

# Biological target: HLA-A*6801 (human)
# Assay: competition with 125I-labelled standard peptide for purified HLA; gel filtration
row,IC50 [nM],Binder
1,22,B13

# Biological target: T3, HLA-A*0301 (human)
# T3 construct: also called HLA-A3
# Assay: inhibition of 125I-labelled probe peptide binding to purified HLA-A*0301, gel filtration; ratio to standard peptide 941.12 [..] (11 nM); the negative sign is not explained
row,relative binding ratio (IC50 of standard peptide / IC50 of test peptide),Binder
1,-0.0002,B14
2,-0.0002,B15

# Biological target: T4, HLA-DR3 (DRB1*0301) (human)
# T4 construct: Purified HLA class II molecule
# Assay: competition with 125I-labelled probe peptide on purified HLA-DR, gel filtration; IC50 of standard peptide / IC50 of test peptide
row,relative binding ratio [ratio],Binder
1,-0.0025,B16
2,0.0075,B17
3,-0.0025,B18

# Biological target: HLA-A*6802 (human)
# Assay: competition with 125I-labelled probe peptide for purified HLA, gel filtration
row,IC50 [nM],Binder
1,17,B19
2,110,B20
3,84,B21
4,851,B22

# Biological target: HLA-A*0203 (human)
# Assay: as above
row,IC50 [nM],Binder
1,1010,B19
2,135,B23
3,16,B20
4,77,B22

# Biological target: HLA-A*0206 (human)
# Assay: as above
row,IC50 [nM],Binder
1,385,B23
2,20,B20
3,18,B21
4,11,B22

# Biological target: HLA-A*0202 (human)
# Assay: as above
row,IC50 [nM],Binder
1,13,B19
2,768,B23
3,10,B20
4,56,B21
5,66,B22

# Biological target: T5, HLA-A*0201 (human)
# T5 construct: also called HLA-A2.1
# Assay: as above
row,IC50 [nM],Binder
1,35,B19
2,55,B23
3,7.1,B20
4,13,B21
5,7.2,B22

# Biological target: T6, HLA-A*0301 (purified HLA class I molecule) (human)
# T6 construct: also called A3
# Assay: inhibition of 125I probe peptide binding to purified HLA; ratio to standard peptide
row,relative binding ratio,Binder
1,0.0005 ratio (IC50 standard / IC50 test),B24
2,0.021 ratio (IC50 standard / IC50 test),B25
3,0.0015 ratio (IC50 standard / IC50 test),B26
4,0.022 ratio (IC50 standard / IC50 test),B27

# Biological target: HLA-A*1101 (purified HLA class I molecule) (human)
# Assay: as above
row,relative binding ratio,Binder
1,0.01 ratio (IC50 standard / IC50 test),B24
2,0.61 ratio (IC50 standard / IC50 test),B25
3,0.031 ratio (IC50 standard / IC50 test),B26
4,0.0042 ratio (IC50 standard / IC50 test),B27

# Biological target: HLA-A*3301 (purified HLA class I molecule) (human)
# Assay: as above
row,relative binding ratio,Binder
1,0.088 ratio (IC50 standard / IC50 test),B24
2,0.0012 ratio (IC50 standard / IC50 test),B25
3,0.58 ratio (IC50 standard / IC50 test),B26
4,0.0064 ratio (IC50 standard / IC50 test),B27

# Biological target: HLA-A*6801 (purified HLA class I molecule) (human)
# Assay: as above
row,relative binding ratio,Binder
1,0.031 ratio (IC50 standard / IC50 test),B24
2,0.01 ratio (IC50 standard / IC50 test),B25
3,0.44 ratio (IC50 standard / IC50 test),B26
4,0.0093 ratio (IC50 standard / IC50 test),B27

# Biological target: HLA-A*3101 (purified HLA class I molecule) (human)
# Assay: as above
row,relative binding ratio,Binder
1,0.0002 ratio (IC50 standard / IC50 test),B24
2,0.014 ratio (IC50 standard / IC50 test),B25
3,0.53 ratio (IC50 standard / IC50 test),B26
4,0.0008 ratio (IC50 standard / IC50 test),B27

# Biological target: T7, HLA-DRB1*0401 (human)
# T7 construct: also called DR4w4
# Assay: competition with 125I probe peptide, purified HLA
row,IC50 [nM],Binder
1,1960,B28
2,196,B29
3,6160,B30

# Biological target: T8, HLA-DRB1*0101 (human)
# T8 construct: also called DR1
# Assay: competition with 125I probe peptide, purified HLA
row,IC50 [nM],Binder
1,100,B29

# Biological target: T9, HLA-A*6802 (human)
# T9 construct: purified HLA class I molecule
# Assay: competition for purified HLA vs 125I-labelled probe peptide, gel filtration
row,IC50 [nM],Binder
1,17,B31
2,84,B32
3,110,B33

# Biological target: T10, HLA-A*0203 (human)
# T10 construct: purified HLA class I molecule
# Assay: as above
row,IC50 [nM],Binder
1,1010,B31
2,135,B34
3,16,B33

# Biological target: T11, HLA-A*0201 (human)
# T11 construct: also called HLA-A2.1
# Assay: as above
row,IC50 [nM],Binder
1,35,B31
2,13,B32
3,55,B34
4,7.1,B33

# Biological target: T12, HLA-A*0202 (human)
# T12 construct: purified HLA class I molecule
# Assay: as above
row,IC50 [nM],Binder
1,13,B31
2,56,B32
3,768,B34
4,10,B33

# Biological target: T13, HLA-A*0206 (human)
# T13 construct: purified HLA class I molecule
# Assay: as above
row,IC50 [nM],Binder
1,18,B32
2,385,B34
3,20,B33

# Biological target: T14, HLA-DRB1*0401 (human)
# T14 construct: also called DR4w4
# Assay: competition with 125I-labeled standard peptide, purified HLA-DR, gel filtration
row,relative binding ratio,Binder
1,0.023 ratio (standard IC50 / test IC50),B35

# Biological target: T15, HLA-DRB1*0101 (human)
# T15 construct: also called DR1
# Assay: as above
row,relative binding ratio,Binder
1,-0.0005 ratio (standard IC50 / test IC50),B35

# Biological target: T16, HLA-DRB1*0701 (human)
# T16 construct: also called DR7
# Assay: as above
row,relative binding ratio,Binder
1,-0.0011 ratio (standard IC50 / test IC50),B35
